Measured values published in the supplement of paper PMC12764529.
± gives the half width of the 95% confidence interval.

Experiments:
[1] = folding stability dG unfold from trypsin proteolysis; higher = more stable
Summary of the method: (§1)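 Designed mini-proteins (under 80 residues, no cysteine) in a PA-tagged cDNA display construct were digested with trypsin and chymotrypsin. Each protease was used at 11 concentrations (threefold dilutions) plus a no-protease condition, followed by sequencing. K50 was inferred by Bayesian fitting of sequencing counts, and unfolding free energy was derived against a sequence-predicted unfolded-state K50 and a shared folded-state K50, per protease or combined. Only designs with AlphaFold2 dimer inter-PAE above 15 were kept.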

[2] = folding stability dG unfold (combined trypsin and chymotrypsin); higher = more stable
Summary of the method: as §1

[3] = folding stability dG unfold from chymotrypsin proteolysis; higher = more stable
Summary of the method: as §1

Q: For “SAGGPNIRIDINLMPHPGKPYIMVRIEIPNGYKREIMFNPDDGKISIEIRYPGKEEKIEFPLDDIKPISAGG [r13_328_TrROS]”, which “folding stability dG unfold” value [1] is on record?
A: Its value is 3.48 ± 0.5 kcal/mol.

Q: What about the “folding stability dG unfold” value [2] of the same sequence?
A: Its value is 4.42 ± 0.32 kcal/mol.

Q: And the “folding stability dG unfold” value [3]?
A: Its value is 4.7 ± 0.3 kcal/mol.

Q: With “SAGGPNKPIKIKIMIWRDPGGWYIAIRIPDGNTRMFKSPEQIKSILEKFPGLKIDEIEIIPPDQMKKLSAGG [r13_730_TrROS]” as the sequence, how does the “folding stability dG unfold” value [1] read?
A: Its value is 1.7 ± 0.025 kcal/mol.

Q: What about the “folding stability dG unfold” value [2] of the same sequence?
A: The value was 2 ± 0.079 kcal/mol.

Q: And the “folding stability dG unfold” value [3]?
A: Its value is 2.23 ± 0.073 kcal/mol.

Q: For “SAGGPNWMQMEIWLPPGNPEKIEKIIRDKGWKVEDIKVKEVNPNNGWMRVTIYMPGPWPMDEIKEAVRSAGG [r13_725_TrROS]”, which “folding stability dG unfold” value [1] is on record?
A: The value was 1.96 ± 0.11 kcal/mol.

Q: And the “folding stability dG unfold” value [2]?
A: Its value is 3.15 ± 0.25 kcal/mol.

Q: And the “folding stability dG unfold” value [3]?
A: The value was 3.6 ± 0.16 kcal/mol.

Q: What does the source list for “SAGGPNWYLKVKIEHRYPNPDNGKWQERRMEVIIPFKDPDQLPPNALKKLIDIMQPMGFRVDVELFPWSAGG [r13_926_TrROS]”?
A: folding stability dG unfold [1]: 3.19 ± 0.23 kcal/mol; folding stability dG unfold [2]: 3.76 ± 0.28 kcal/mol; folding stability dG unfold [3]: 3.99 ± 0.12 kcal/mol

Q: Which “folding stability dG unfold” value [1] does the source give for “SAGGPPEGEKKKFRIDDVQPMPNPNGYFMVQIRYNDKPVSSIPIPPNNLDKLANDLPPGMEVEIYPFSAGGS [r8_41_TrROS]” here?
A: The value was 0.06 ± 0.11 kcal/mol.

Q: What about the “folding stability dG unfold” value [2] of the same sequence?
A: Its value is 0.369 ± 0.21 kcal/mol.

Q: And the “folding stability dG unfold” value [3]?
A: Its value is 0.511 ± 0.19 kcal/mol.

Q: For “SAGGPPFKIKEINIQYNPDAGYVTMTFTFDDGATVEAMISPEEGRIPGKVEVPGKEIEHEFEIPVPPSAGGS [r8_363_TrROS]”, which “folding stability dG unfold” value [1] is on record?
A: The value was 1.4 ± 0.041 kcal/mol.

Q: What about the “folding stability dG unfold” value [2] of the same sequence?
A: The value was 1.38 ± 0.19 kcal/mol.

Q: And the “folding stability dG unfold” value [3]?
A: Its value is 1.5 ± 0.099 kcal/mol.

Q: What does the source list for “SAGGPPGDPILLRISYTIRPNGKERTMDHEIPFKNPNQPITLEQIRKELRDALPPGYKITDVEIDVLSAGGS [r16_407_TrROS]”?
A: folding stability dG unfold [1]: 0.364 ± 0.069 kcal/mol; folding stability dG unfold [2]: 0.444 ± 0.1 kcal/mol; folding stability dG unfold [3]: 0.276 ± 0.16 kcal/mol

Q: With “SAGGPPGEEIPIMVRIKMRNPENGEEMELPITHTVKSKEDLKWAKKLVDEIAEEFREQGMKDVEIEIFSAGG [r13_360_TrROS]” as the sequence, how does the “folding stability dG unfold” value [1] read?
A: The value was 0.47 ± 0.15 kcal/mol.

Q: What about the “folding stability dG unfold” value [2] of the same sequence?
A: Its value is 0.908 ± 0.15 kcal/mol.

Q: And the “folding stability dG unfold” value [3]?
A: The value was 1.07 ± 0.21 kcal/mol.

Q: With “SAGGPPPDTTVTVTLTRTTPTQWLIEFPATGEVREIPRDPAASDEEAKELVKELAKEEGYNVNINLTSAGGS [r16_446_JUSTAS]” as the sequence, how does the “folding stability dG unfold” value [1] read?
A: The value was 1.05 ± 0.081 kcal/mol.

Q: What about the “folding stability dG unfold” value [2] of the same sequence?
A: The value was 0.812 ± 0.3 kcal/mol.

Q: What about the “folding stability dG unfold” value [3] of the same sequence?
A: Its value is 0.438 ± 0.29 kcal/mol.

Q: Which “folding stability dG unfold” value [1] does the source give for “SAGGPPSVWIPIEINFPDSPEQLLEEVENAAQEIADLFGIPVKIEVERNPKKGYATIWIRVDGKTIPISAGG [r13_845_TrROS]” here?
A: The value was 1.66 ± 0.041 kcal/mol.

Q: And the “folding stability dG unfold” value [2]?
A: The value was 1.71 ± 0.22 kcal/mol.

Q: And the “folding stability dG unfold” value [3]?
A: Its value is 1.7 ± 0.11 kcal/mol.

Q: What does the source list for “SAGGPPVTIMIRLPPLQEQLPPEWLEKLKNIRVPNGHPIKDIDVQPHNGRWVIMIKVDSPEQARDIIRSAGG [r13_269_TrROS]”?
A: folding stability dG unfold [1]: 1.66 ± 0.048 kcal/mol; folding stability dG unfold [2]: 1.75 ± 0.13 kcal/mol; folding stability dG unfold [3]: 1.89 ± 0.053 kcal/mol

Q: Which “folding stability dG unfold” value [1] does the source give for “SAGGPPYYMIKIRYPDNGKEYEIPPGIKVHRDPNNEVYIMFRSPAAADDLVDEIAPTNGLRVEIEPFSAGGS [r8_131_TrROS]” here?
A: The value was 0.945 ± 0.23 kcal/mol.

Q: And the “folding stability dG unfold” value [2]?
A: Its value is 0.915 ± 0.3 kcal/mol.

Q: And the “folding stability dG unfold” value [3]?
A: Its value is 1.07 ± 0.24 kcal/mol.

Q: For “SAGGPRITITYPLPPGDIEKIEKLAKEALDNGDNVDVNIPHPNGWYVTLTVDPPNGKIEEVEWQPPDKSAGG [r13_873_TrROS]”, which “folding stability dG unfold” value [1] is on record?
A: Its value is 0.571 ± 0.076 kcal/mol.

Q: What about the “folding stability dG unfold” value [2] of the same sequence?
A: The value was 0.499 ± 0.12 kcal/mol.

Q: What about the “folding stability dG unfold” value [3] of the same sequence?
A: Its value is 0.598 ± 0.061 kcal/mol.

Q: What does the source list for “SAGGPSIPGEKIRELLEKGYSLEEIVEFLEKENIPIARIEGVEPHPNSITIVFYNPETGEKITAVIGSAGGS [r8_179_TrMRF]”?
A: folding stability dG unfold [1]: 2.02 ± 0.058 kcal/mol; folding stability dG unfold [2]: 2.72 ± 0.14 kcal/mol; folding stability dG unfold [3]: 2.96 ± 0.081 kcal/mol

Q: What does the source list for “SAGGPVKLVKVQFINPETGEPVEISGPASKVLEIAEKLGLNVTSVTVIENPNTILVVVPGPNQLVVVTDSAG [r5_521_TrMRF]”?
A: folding stability dG unfold [1]: 1.82 ± 0.055 kcal/mol; folding stability dG unfold [2]: 1.69 ± 0.11 kcal/mol; folding stability dG unfold [3]: 1.45 ± 0.018 kcal/mol

Q: Which results are given for “SAGGPVNKKELVTVPVYYDPETGKFVVKATYPTRPITVPTDETDPVEALARFGTLLEKVTGKPIDTFVGSAG [r5_251_TrMRF]”?
A: folding stability dG unfold [1]: -0.0487 ± 0.083 kcal/mol; folding stability dG unfold [2]: 0.288 ± 0.04 kcal/mol; folding stability dG unfold [3]: 0.414 ± 0.098 kcal/mol

Q: For “SAGGPVTFEAPLEELLKALPPELVRHASVEPLGEGERRFIATVELEDRRIEAYSDPERPGRVLVTLHFSAGG [r13_942_TrMRF]”, which “folding stability dG unfold” value [1] is on record?
A: The value was 0.332 ± 0.11 kcal/mol.

Q: And the “folding stability dG unfold” value [2]?
A: Its value is 0.569 ± 0.12 kcal/mol.

Q: What about the “folding stability dG unfold” value [3] of the same sequence?
A: Its value is 0.688 ± 0.12 kcal/mol.

Q: With “SAGGPVTTVSVSGFVLPDGSRALLVTVATYYPDGYVAVPPVLVLVYPNGESEASTSTLVVKVPGGALSAGGS [r16_505_TrMRF]” as the sequence, how does the “folding stability dG unfold” value [1] read?
A: The value was 2.3 ± 0.056 kcal/mol.

Q: And the “folding stability dG unfold” value [2]?
A: Its value is 2.79 ± 0.04 kcal/mol.

Q: And the “folding stability dG unfold” value [3]?
A: Its value is 3.008 ± 0.011 kcal/mol.
